Assay results taken from the nanobody polyreactivity screen of Harvey et al. (2022).

Assay: yeast display, Sf9 membrane polyspecificity reagent, FACS + sequencing; frameworks hold sequencing errors
Summary of the method: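 Sorting gates, low and high (top ~1%), were placed on anti-HA fluorescence to track expression and on streptavidin fluorescence to track reagent binding. A clone's polyreactivity label is taken from the gate it came out of. The reagent was 10% biotinylated, detergent-solubilized Sf9 membrane, applied for 1 hour at 4 °C to galactose-induced yeast display cells.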

Sequence	polyreactivity (PSR sort gate)
QVLLQESGGGLVQAGGSLRLGCAASGTISHAYYMGRYHQAPGKEREFVAAITYGTNTYYADSVKGRFTISRDNAKNTVYLQMNSLKPEDTAVYYCSATAGYNGAHDYWGQGTQVTVSS	low polyreactivity
QVQLVESGGGFVQAGGSLRLSCAASGFIFRVYAMGWYRPAPGKERELVAAISKRGGSTFYADSVKGRFTISRDNANNTVYLQMNSLKPEDTAVYDCAASARLGYDYWGQGTQVTVSS	high polyreactivity
QVQLVESGGGLVQAGGSLRLTCAASGRIFVKNAMGWYRQAPGKERELVATICSGGNTNYADSVKGRFTISRDNAKNTVYLQMNSLKPEDTAVYYCAAVWDLGDYELPYDYWGLGTQVTVSS	low polyreactivity
QVQLVESGGGLVQAGGSLRLSCAASGRTFNYYAMGWYRQAPGKERELVAAISSRGGTYYADSVKGRFTISRDNAKNTVYLQMNSLKPEDTAVYYCNAVHYDTISDYWGQGTQVTVSS	high polyreactivity
QVQLVESGGGLVQAGGSLRLSCAASGIIFYTYAMGWYRQAPGKERELVAAISRSGVRTYYADSVKGRFTISRDNAKNTVYLQMNSLKPEDTAVYYCAVDKGITQGLYDYWGQGTQVTVSS	high polyreactivity
QVQHVESGGGLVQAGGSLRLSCAAYGRTFGYYAMGWNRQAPGKDRELVAAITSGGRTNYADSVKGRFTISRDNAKNTVYLQMISQKPEDTAVYYCAATWNWPLSERKFNYWGQGTQVTVSS	low polyreactivity
QVQLVESGGGLLQAGGSLRLSCAASGFTFQYNAMGWYRQAPGKERELVAAISRSGTSTYYADSVKGRFTISRDNAKNTVYLQMNSLKPEDTGVYYCNAYYLSGSVYWTGDIYDYWGQGTQVTVSS	high polyreactivity
QVQLVESGGGLVQAGGSLRLSCAASGRIFRWYAMGWYRPAPGKERELVAAISRSGTSTYYADSVKGRFTISRDNAKNTVYLQMNSLKPEDTAVYDCAADRTGRIVLSPTDEMDYWGQGTQVTVSS	low polyreactivity
QVQLVESGGGLVQAGGSLRLSCAASGSIFYYYAMGWYRQAPGKERELVAAITRSVSRTYYADSVKGRFTISRDNAKNTVYLQMNYLKPEVTAVYYCNVVGSSETSTVYYCGQGTQVTVSS	high polyreactivity
QVQLVESGGGLVQAGGSLRLSCAASGSIFSFNVMGWYRQAPGKERELVATITGGGSTNYADSVKGRFTISRDNAKNTVYLQMNSLIPEDTAVYYCAARPVNGGILEYWGQGTQVTVSS	low polyreactivity
QDQLVESGGGIVQAGGSLRLSCAASGSTFYENAMGWYRQAPGKERELVAAITWSGGRTYYADSVKGRFTISRDNAKNTVYLQMNSLKPEDTAVYYCAALYGVSEEDDYWGQGTQVTVSS	high polyreactivity
QVQLVESGGGLVQAGGSLRLSCAASGSTFVGNAMGWYRQAPGKERELVAAISRGGGRTYYADSVKGRFTISRDNAKNTVYLQMNSLKPEDTAVYYCNADVYHRAWHLDYWGQGTQVTVSS	high polyreactivity
QVQLVESGGGLVQAGGSLRLSCAASGSIFDTYAMGWYRQAPGKEREVVAAITWSGSSTYYADSVKGRFTISRDNAKNTVYLQMNSLKPEDTAVYYCAAEVSGKYFLFDYWGQGTQVTVSS	high polyreactivity
QVQLVESGGGLVQAGGSLRLSCAASGRTFGLYAMGWYRQAPGKERELVAAISSGVSTNYADSVKGRFTISRDNAKNTVYLQMNSLKPEDTAVYYCAAKNYYPRVNYWGQGTQVTVSS	high polyreactivity
QVQLVESGGGLVQAGGSLRLSCAASGSTYYPYAMGWSRQAPGKEWQFVAAITWSGGSTYADSVKGRFTISRDNAKNTVNLQMNSLKPEDTAGYYCAAQPFVIDGGYRGDYWGQGTQETVSS	low polyreactivity
QVQLLESGGGLVKAGGCRRLSCAASGSTLTPYTMGWYSEAPGIERELVAAMTQCGGTTYYADSVKGRFTISRDNAQNTVYVQMNSLKPEDTAVYYCAARSYGSTSPIRVQLYYWGQGTQVTVSS	high polyreactivity
QVQLVESGGGLVQAGGSLRLSCAASGRIFTQYAMGWYRQAPGKERELVAAINASDGSTYADSVKGRFTISRDNAKNTVYLQMNSLKPEDSAVYFCYVTGGPYDFTRWSEFDHWGQGTQVTVSS	low polyreactivity
QVQLVESGGGLVQAGVSLRLSCAASGFISDWYAMGWYRQAPGNERELVATLDWIGGSTYADSVKGRFTISRDNAKNTVYFQMNSLKPEDTAVYYCAADSFFIAWYGAHYAYDDWGQGTQVTVSS	low polyreactivity
QVQHVESGGGLVQAGGSLRLSCAASGGIFYPNAMGWYRQAPGKERELVAAISSGGGSTYYADSVKGRFTISRDNAKNTVYLQMNSLKPEDTSGYYCAASADRLKSDVESDYWGQGTLVTVSS	low polyreactivity
QVQLVESGGGLVQAGGSLRLSCAASGRIFTPNAMGWSRQAPGKERELVAAITWSGDNTYADSVKGRFTISRDNAKNTVYLQMNSLKPEDTAVYYCAAAYGYGHKKYGYWGQGTQVTVSS	low polyreactivity
QVQLVESGGGLVQAGGSLRLSCAASGSTFLYYDMGWYRQAPGKERELVATITRGGSTYYADSVKGRFTISRDNAKNTVYLQMNSLKPEDTAVYYCAAYRWGILSAYYYAWYGYWGQGTQVTVSS	low polyreactivity
QVQLVESGGGLVQAGGSLRLSCAASGRTFYSNAMGWYRQAPGKERELVAAISSSGGRTFYADSVKGRFTISRDNAKNTVYLQMNSLKPEDTAVYYCAAVPGYPRDSLYNYWGQGTQVTVSS	high polyreactivity

Sequence	polyreactivity (PSR sort gate)
QVQLVDSGGGLVPAGGSLRLSCAASGFTFTRYVMGWYRQAPGKERELVAAISGSGGSTNYADSVKGRFTISRDNAKNTVYLQMNSLKPEDTAVYYCAVGYRGWDGYWGQGTQVTVSS	high polyreactivity
QVQLVESGGGLVQAGASLRLSCAASGRIFYLNVMGWYIQAPGKERELVAAISSSDDSTYYADSVKGRFTISRHYAKNTVYLQMNSLKPEDTAVYYCAAGYHQVQNYGDAYYWSELYSWGLGTQVTVSS	low polyreactivity
QVQLVESGGGLVQAGGSLRLSCAASGYILDVYAMGWYRQAHGKERELVAVITWRTDSTYYADSVKGRFTISRDNAKNTVYLQMNSLKPEDTAVYYCAKVLRLSKYRYYYWGQGTQVTVSS	high polyreactivity
QVQLVESGGGLVQAGGSLRLSCAASGRTFRYYAMGWYRQAPGKERELVAAITSSGDSTYYADSVKGRFTISRDNAKNTVYLQMNSLKPEDTAVYYCAAGQPLFYDAEYGYWGQGTQVNVSS	low polyreactivity
QVQHVESGGGLVQAGGSLRLSCAASGSIFNLYVMGWYRQAPGKERELVATISSGGSTNYADSVKGRFTISRDNAKNTVYLQMNSLKPEDTAVYYCAKPYIVYYSMDYWGQGTQVTVSS	low polyreactivity
QVQLVESGGGLVQAGGRLRLSCAASGFIFSYYAMGWYRQAPGKERELVAAINYSGGRTYYADSVKGRFTISRDNAKNTVYLQMNSLKPEDTAVYYCNAVTFGRRAFDYWGQGTQVTVSS	high polyreactivity
QVQLVESGGGLVQAGGSLRLSCAASGNTFYANTMGWYRQARNERELVAAITSGTYADSVKGRFTISRDNAKNTVYLQMNSQKPEDTAVYYCAREESLYVTDPGPSKLDYWGQGTQVTVSS	low polyreactivity
QVQLVESGGGLVQAGGSLRLSCAASVSTFGRYVMGWYRQAPGKERELVAAISKNAGSTYYADSVKGRFTISRDNAKNTVYVQMNSLKPEDTAVYYCAADWRTKGYDSLGQGTQVTVSS	high polyreactivity
QVQLVESGGGLVQAGGSLRLSCAASGIIFSYNTMGWYRPAPGKERELVAAISRTGGRTYYADSVKGRFTNSRDNAKITVYLQMNSLKPEDTAVYYCAAEQQYASMGYDYWGLGTQVTVSS	high polyreactivity
QVQLVESGGGLVQAGGSLRLTCAASGRIFKQYAMGWYRQAPGKEMELVATISSGGDTNYADSVKGRFTISRDNAKNTVYLQMNSLKPEDTAVYFCAAGDIYYAEYEYWGKGTQVTVSS	low polyreactivity
QVQLVESGGGLVQAGGSLRLSCAASGSTFAHNAMGWYRQAPGKERELVAAISRRGGSTYYADSVKGRFTISRDNAQNTVYLQMNSLKPEDTAVYYCNAVAHNVRVYRFYPGWAGLDYWGQGTQVTVSS	high polyreactivity
QVQLVESGGGLVQAGGSLRLSCAACGRTFRRNAMGWYREAPGKERELVAAISTSGGRTYYADSVKGRFTISRDNAKNTVYLQMNSLKPEDTAVYYCAADIPQTDGYWGQGTQVTVSS	low polyreactivity
QVQLVESGGGLVQAGGSLRLSCAPSGSTFRRNAMGWSRQAPGKERELVAANSGSGGRTYYADSVKGRITISRDNAKNTVYLQMNSMKPEDTAVYYCAARSTVYEFFYYRGWWEYYYWGQGTQVTVSS	low polyreactivity
QVQLVESRGGIVQAGGSLRLSCAASGSIFTGNAMGWYRQAPGKERELVAAITSSAGSTYYADSVKGRFTISRDNAQYTVYLQMNSLKPEDTAVYYCAKDYYSKHFPNYDYWGQGTQVTVSS	low polyreactivity
QVQLVESGGGLVQAGGSLRLSCAASGFTFLYYDMGWYRQAPGKERELVAAITNDDSTYYADSVKGRFTISRDNAKNTVYLQMNSLKPEDTAVYYCAADSVYGSDEYWGQGTQVTVSS	high polyreactivity
QDQRVDSGGGLVQAGGSLRLSCTAYGFIFGWYAMGWYRQSPGKASQLVAPISQSVGSTYYADSVKGRFTISRDNAKNTVYLQMNSLKPEDSAVYYCNAVGRGSRSRLSSRAGGGDYWGQGTQVTVSS	high polyreactivity
QVQLVESGGGLVQAGGSLRLSCAASGFIFGGYARGWYRQAPGKEREFVAAIRQRGGSTYYADSVKGRFTISRDNAKNTVYLQMNSLKPEDTAVYYCAAEPNTQWFDYWGQGTQVTVSS	high polyreactivity
QVQLVESGGGLVQAGGSLRLSCAASGSTFSVYAMGWYRQAPGKERELVAAISWSGGSTYYADSVKGRFTISRDNAKNTVYLQMNSLKPEDTAVYYCNATVTYYRYYAYVRRYYWGQGTQVTVSS	high polyreactivity
QVQLVESGGGIVQAGGSLRLSCAASGSIFQWYAMGWYRQAPGKERELVAAISFNGGITYYADSVKGRFTISRDNANNTVYLQMNSLKPEDTAVYYCATEYRSASGDYDYWGQGTQVTVSS	low polyreactivity
QVQLVESGGGLVQAGGSLRLSCAASGSTFRAYAMGWYRQAPGKEREFVADISWSGGSTYYADSVKGRFTISRDNAKNTVYLQMNSLKPEDTAVYYCAAEAAPLIIVTYDYWGQGTQVTVSS	low polyreactivity
QVHLVESGGGLVQAGGSLRLSSAASGITFWHNTMGWYRQAPGKERELVAAISWTGGRTYYADSVKGRFTISRDNAKNTVYLQMNSLKPEDTAVFSCAADFSWTPCGNYDSWGQGTQVTVSS	low polyreactivity
